We go through three substances from publication PMC11459465.

Assay [1] deals with BG505 IDL trimer (HIV-1 strain BG505 (clade A)). The assay is described as follows: cryo-EM structure.
For assay [2] the target is unchanged. The assay is described as follows: negative-staining electron microscopy.
The target in assay [3] is JR-FL IDL trimer (HIV-1 strain JR-FL (clade B)). Nature of the assay: cryo-EM structure.
Assay [4] deals with WITO IDL trimer (HIV-1 strain WITO (clade B)). Nature of the assay: cryo-EM structure.

As a reminder, the stoichiometry N is the number of molecules, sites or subunits per partner or assembly. For the substance BG505 IDL trimer (complex), the stoichiometry N in assay [1] and in assay [2] was 3 in each case. Take JR-FL IDL trimer (complex): in assay [3], the stoichiometry N is 3. In assay [4], WITO IDL trimer (complex) returned a stoichiometry N of 3.
